Test: label from the status in PepcDB records
With “MVITNFLILLLGLVFLVKGSDYFVKSASSIAKKLGISEFIIGLTLVAVGTSIPELASSMAASIQQASGIVIGNVVGSNIANIGLIVGIAAFLSPMKTEVEMLRRDGYIMLFAALLFFAFALNGELSKIEAGLFLLLYIAYTFFLFEETDKHEGKLYFKEFIKYFVKFQYINSARQKINGINNGVSRTNGDSGNKNCQPKNSFSKDILALILSCAAIIIGAKYFVSESIFFAELLGIPDTIIGTTLVAIGTSLPELAVTVSAARQGYGNIALGNIIGSNITNILMILGVSGLLFPIAVAEISLVFTAPVMIFISVVLLIFISTGWEIKRWEGAALMSLYAAFLFVLFRIS” the protein production was “failed”. With “MVIYDLHESTYKQEVYCNIPDATSWSFPNGVLIKVVRGCWILYEKPHFRGQKCVLEEGEKVLNRDWILQNRRHPQRNFILGSLKRVLKDCSIPEIELFPQSDPACCPVYIQRAVPNLEELNISKSVSFTVKSGVWLAYPDINFKGQATVLEEDHGLFEISTAEMKSLHPLQMGGLKVEMPMNLKVIIYEKPHFHGQAKEFSEHIDSVPNFLKNNGDFHRIGSIRVIGGVWVAYEKEHFKGQQFLLEEGDFEDSNACGALSSPILSFRYLQANFIESSVTLFESDLESGKFIDITNQEISDLEEIGFGSKTRSIHVKSGVWVAYQQKFFCGEQYILEKGKYKCFFDWGGSNNIIMSIRPIQLEPLGINEPPHLLKAFSKPGFQGECIDFTEETSDLTPLMPCSFKVLRGCWLLYYQEDMFVNHCVLEEGLYADLTSCGCPASKVKSLKPIDYVFEEPSISLFALEHCEGRELHLEEAVNSVLNKDLHFYTQSVWVKSGLWIAYEGSNFLGRQILLRPNEIPNWTAFSRWKTIGSLRPMKQPAVYIRIKNRAQGEYLTVTGSLADTRATSVCISPYSGKHTQIWYYCRGLFKSKASDTCLDVIGGRDTPGAKVALWTEHGQFRQKWRLNKNGTISSYLSDQLVLDVKGGNYCDKTHVIVNQPLEGEETQKWDIEIL” the protein production was “failed”. For “MVKATKAEKKIAYDTKLCQLIDEYTQILVVAADNVGSTQLQNIRKGLRGDSVVLMGKNTMMKRSVRIHSENTGNTAILNLLPLLQGNVGLIFTKGDLKEVSEEVAKYKVGAPARVGLVAPIDVVVQPGNTGLDPSQTSFFQVLNIPTKINKGTVEIITPVELIKQGDKVGSSEAALLAKLGIRPFSYGLVVQSVYDNGSVFSPEVLDLTEDQLVEKFASGISMVTSLALAVSYPTLAAAPHMFINAYKNALAIAVATEYTFPQAEKVKEYLKDPSKFAVASVAAVSADAGGGAPAAAKVEEKEESDEEDYGGDFGLFDEE”, the protein production was “failed”. With “MVKEPGGKHVLCVGAAVLDTLFRVADMPKGEGKVLPYEVLQIAEGMASSAAYAVHRMGGRASLWGAVGDDETGTRILRDLSESGIDTSGMTVAPGARSALSTIIIDNRGERLIVPFYDHRLHEKKRACTPEDIALFDAVLVDVRWPELALDVLTVARALGKPAILDGDVAPVETLEGLAPAATHIVFSEPAATRLTGLETVKDMLPVLHARYPQTFIAVTAGPAGCWWTEADDPTVHFQTTMQVEAVDTLAAGDIFHGTFALAMAEGMQSRAAVRLSSVAAALKCTVFGGRIGAPTREETEEAMRQWLERESEPALRAS” the protein production was “not failed”. For “MVKHHHLYELSPMVTGWTICVMVLRIYKKFLNLNAFELRLVLADEWGTQIEATIGPRFSAFYFDRIKENQWKTITTFLVRPNCEAIKTTPHQFRILFMDHTIVTSSTPRETGLLNKFTPFDYIVDDVVGNDTLVDLIGALVNVGILTNTASNENDMAGFKLPFTIMDKNKDTLVCEAYGEIAVDLEKRFRAFRKNNVVIALAWWKILRFYPVAAIPEVYLLAPMLAKIVSYVAESGVDSLKSFVKAGLLFKAAVYSKETLSCVRLDRSWYFMLAFHMCELQEAIAILDGIKDVFPHAGLLYIMLHSCAGSIPWEFYRMYKRRYYKFSEVDLFADKLMFHINEVGPRRQGTYKNS”, the protein production was “failed”. In the case of “MVKHIVLFKLRDDVPVEEKLVVMNSFKEAIEALPAKISVIRKIEVGLNMNPGETWNIALYSEFDNLDDVKFYATHPEHVAAGKILAETKESRACVDYEF”, the protein production is reported as “not failed”. With “MVKIAASILACDLARLADEVKRVEEHVDMIHFDVMDGHFVPNISFGLPVLKALRKETKLPISVHLMITNPEDYIDRFIEEGADMVAIHYESTFHLHRLVHRVKDLGARAFVAINPHTPINLLSEIITDVDGVLVMSVNPGFSGQRFIARSLEKIRNLRKMVKELGLETEIMVDGGVNEENASILVKNGATILVMGYGIFRNDNYVELIKSIKQEREEFAD” the protein production was “not failed”. With “MVKKMKSKTISTIHIDTFSIPFPFVAMSNKVCRGYTLIRAFGITALAILILVGIAGAAPFAYVTNIGDYDQRGPNVAVIDTATNNVTARVPLGGGWPVGVAVNPAGTKIYVVDSPSDSTVYVIDTATNKVSAKVNLGSSYPARITFNPAGTRVYVTKQHDYTDIFVINPATNTLMAPIIVGPSTYGIAFTPDGKKIYAANCNNNTIYVIDAATNKVTANISVGDSPCGIAVTPDGKKVYVLNYDSNTVSVINTATDNVIATVPVGNSPNLVAVTSNGNKVYVANNNTVSVIDTATNNVIATIPVGTSSRKIVINPDGNRVYLVNFGSNSVSVIDTATDNVIANVPVGEQPMGIAVTPDGKRVYVTNSRSSNVSVIDTATDTVAATVNAGILPTGVVIVPLTDSDMTSQSTGAISSSTEDRGIEVTNISSSEEINAVELNNYSDENNPESDNDNGSNANDSSKNNSTPGFGLLESLAGLYVGWKLGKR” the protein production was “failed”. With “MVKKNVGLRFLSILILMALLIGNVQSFNVAAAEGVIVNGTQFKDTSGNVIHAHGGGMLKHGDYYYWYGEYRDDSNLFLGVSCYRSKDLVNWEYRGEVLSRNSAPELNHCNIERPKVMYNASTGEFVMWMHWENGINYGQARAAVAYSKTPDGKFTYIRSFRPMQDTGVMDHGLPGYMSRDCNVFVDTDGKGYFISAANENMDLHLYELTPDYKNIASLKAKLFVGQQREAPCLIKRNGYYYLITSGCTGWNPNQAKYAYSKDLASGWSQLYNLGNSTTYRSQPTFIIPVQGSSGTSYLYMGDRWAGAWGGKVNDSQYVWLPLNFISDTTLELPYYDSVKIDASSGIISEYIPDTTRYKLVNKNSGKVLDVLDGSVDNAAQIVQWTDNGSLSQQWYLVDVGGGYKKIVNVKSGRALDVKDESKEDGGVLIQYTSNGGYNQHWKFTDIGDGYYKISSRHCGKLIDVRKWSTEDGGIIQQWSDAGGTNQHWKLVLVSSPEPSPSPSPQVVKGDVNGDLKVNSTDFSMLRRYLLKTIDNFPTENGKQAADLNGDGRINSSDLTMLKRYLLMEVDL” the protein production was “failed”. With “MVKMAKMANKFKELDRTAEEKYKKGRISFRVGRFEDALAAYGEAASAWKEMADLLFDKGKETRGKEFLEKARDAKSCYGMALFKLERYEEALEIVDADLKLKPENPTRWSNRGFVLSALGRNEEALEAFEKALAFDPKSPKILTSQGIVYFKMGFLKKSLETFDRALATEPRKASDWACKIPRFSFFSRNKAPIMKPDNIETWYWKGNVLLELGEKEKALNSFRKALESDPDHLNSLLSGGDLLCEFAEYGEAFKCYVRALKLSPGNEAAEKGKEFCEAKINE” the protein production was “failed”. With “MVKPMHLFAVVDALEQAQQFQQVLASRDVSTELVQIEQLNARFLRHHPELALCVDLDGLWLSANGMKMQPDWQAEIPRLKRASLKSEMIARACQINEQPSLIDATAGLGHDSLLMAYLGAHVTLVERHPVLFTLLEDAKSKAENDPFLSKYMQRIHLIFQDAHYYLQQCNQDDRKVDVIYLDPMFPQRDQHHQVIKKQAQVKKQMQLLHLLLPEDGEMDLGDQLLPLAQQIASRVVVKRPKHAVFLNEQQPDHQWQGDACRFDAYFQISMLEHHHHHH” the protein production was “failed”. With “MVKQCSPAHNIFERVSKCYVEKQQPHDVSIPNIRLTVSATGLAFGSVHQANANQNQIACFYFSCNFSSKSNHHQSQAIVREEIQKNLRPVRIVGHQSMASSWRRSIGNVRSFIGNSMGGLRGGQSAASWVVAGTIAYFLWIKPEQDLKKEQEARAALAMADTNQYVEKRKPIADPQVTGLIYGNKNGTDKSED” the protein production was “failed”.

— a protein production outcome set (Wang et al. 2014)
